Patent publication EP1817050B1

Tests used:
[1] = molecular target: IGF-II receptor (human, in membrane extracts of postmortem frontal lobe tissue) (human) (UniProt P11717); experiment: saturation binding of [125I]-IGF-II to pooled human frontal lobe extracts, Braak 0-1; one-site fit/Scatchard
[2] = molecular target: IGF-II receptor (human, in membrane extracts of postmortem frontal lobe tissue) (human) (UniProt P11717); experiment: saturation binding of [125I]-IGF-II to pooled human frontal lobe extracts, Braak 4-5; one-site fit/Scatchard
[3] = molecular target: IGF-II receptor (human, in membrane extracts of postmortem frontal lobe tissue) (human) (UniProt P11717); experiment: saturation binding of [125I]-IGF-II to pooled human frontal lobe extracts, Braak 2-3; one-site fit/Scatchard
[4] = molecular target: IGF-II receptor (human, in membrane extracts of postmortem frontal lobe tissue) (human) (UniProt P11717); experiment: saturation binding of [125I]-IGF-II to pooled human frontal lobe extracts, Braak 6; one-site fit/Scatchard

IGF-II receptor (human, in membrane extracts of postmortem frontal lobe tissue) (human), sequence (P11717 41-2491 limits assumed): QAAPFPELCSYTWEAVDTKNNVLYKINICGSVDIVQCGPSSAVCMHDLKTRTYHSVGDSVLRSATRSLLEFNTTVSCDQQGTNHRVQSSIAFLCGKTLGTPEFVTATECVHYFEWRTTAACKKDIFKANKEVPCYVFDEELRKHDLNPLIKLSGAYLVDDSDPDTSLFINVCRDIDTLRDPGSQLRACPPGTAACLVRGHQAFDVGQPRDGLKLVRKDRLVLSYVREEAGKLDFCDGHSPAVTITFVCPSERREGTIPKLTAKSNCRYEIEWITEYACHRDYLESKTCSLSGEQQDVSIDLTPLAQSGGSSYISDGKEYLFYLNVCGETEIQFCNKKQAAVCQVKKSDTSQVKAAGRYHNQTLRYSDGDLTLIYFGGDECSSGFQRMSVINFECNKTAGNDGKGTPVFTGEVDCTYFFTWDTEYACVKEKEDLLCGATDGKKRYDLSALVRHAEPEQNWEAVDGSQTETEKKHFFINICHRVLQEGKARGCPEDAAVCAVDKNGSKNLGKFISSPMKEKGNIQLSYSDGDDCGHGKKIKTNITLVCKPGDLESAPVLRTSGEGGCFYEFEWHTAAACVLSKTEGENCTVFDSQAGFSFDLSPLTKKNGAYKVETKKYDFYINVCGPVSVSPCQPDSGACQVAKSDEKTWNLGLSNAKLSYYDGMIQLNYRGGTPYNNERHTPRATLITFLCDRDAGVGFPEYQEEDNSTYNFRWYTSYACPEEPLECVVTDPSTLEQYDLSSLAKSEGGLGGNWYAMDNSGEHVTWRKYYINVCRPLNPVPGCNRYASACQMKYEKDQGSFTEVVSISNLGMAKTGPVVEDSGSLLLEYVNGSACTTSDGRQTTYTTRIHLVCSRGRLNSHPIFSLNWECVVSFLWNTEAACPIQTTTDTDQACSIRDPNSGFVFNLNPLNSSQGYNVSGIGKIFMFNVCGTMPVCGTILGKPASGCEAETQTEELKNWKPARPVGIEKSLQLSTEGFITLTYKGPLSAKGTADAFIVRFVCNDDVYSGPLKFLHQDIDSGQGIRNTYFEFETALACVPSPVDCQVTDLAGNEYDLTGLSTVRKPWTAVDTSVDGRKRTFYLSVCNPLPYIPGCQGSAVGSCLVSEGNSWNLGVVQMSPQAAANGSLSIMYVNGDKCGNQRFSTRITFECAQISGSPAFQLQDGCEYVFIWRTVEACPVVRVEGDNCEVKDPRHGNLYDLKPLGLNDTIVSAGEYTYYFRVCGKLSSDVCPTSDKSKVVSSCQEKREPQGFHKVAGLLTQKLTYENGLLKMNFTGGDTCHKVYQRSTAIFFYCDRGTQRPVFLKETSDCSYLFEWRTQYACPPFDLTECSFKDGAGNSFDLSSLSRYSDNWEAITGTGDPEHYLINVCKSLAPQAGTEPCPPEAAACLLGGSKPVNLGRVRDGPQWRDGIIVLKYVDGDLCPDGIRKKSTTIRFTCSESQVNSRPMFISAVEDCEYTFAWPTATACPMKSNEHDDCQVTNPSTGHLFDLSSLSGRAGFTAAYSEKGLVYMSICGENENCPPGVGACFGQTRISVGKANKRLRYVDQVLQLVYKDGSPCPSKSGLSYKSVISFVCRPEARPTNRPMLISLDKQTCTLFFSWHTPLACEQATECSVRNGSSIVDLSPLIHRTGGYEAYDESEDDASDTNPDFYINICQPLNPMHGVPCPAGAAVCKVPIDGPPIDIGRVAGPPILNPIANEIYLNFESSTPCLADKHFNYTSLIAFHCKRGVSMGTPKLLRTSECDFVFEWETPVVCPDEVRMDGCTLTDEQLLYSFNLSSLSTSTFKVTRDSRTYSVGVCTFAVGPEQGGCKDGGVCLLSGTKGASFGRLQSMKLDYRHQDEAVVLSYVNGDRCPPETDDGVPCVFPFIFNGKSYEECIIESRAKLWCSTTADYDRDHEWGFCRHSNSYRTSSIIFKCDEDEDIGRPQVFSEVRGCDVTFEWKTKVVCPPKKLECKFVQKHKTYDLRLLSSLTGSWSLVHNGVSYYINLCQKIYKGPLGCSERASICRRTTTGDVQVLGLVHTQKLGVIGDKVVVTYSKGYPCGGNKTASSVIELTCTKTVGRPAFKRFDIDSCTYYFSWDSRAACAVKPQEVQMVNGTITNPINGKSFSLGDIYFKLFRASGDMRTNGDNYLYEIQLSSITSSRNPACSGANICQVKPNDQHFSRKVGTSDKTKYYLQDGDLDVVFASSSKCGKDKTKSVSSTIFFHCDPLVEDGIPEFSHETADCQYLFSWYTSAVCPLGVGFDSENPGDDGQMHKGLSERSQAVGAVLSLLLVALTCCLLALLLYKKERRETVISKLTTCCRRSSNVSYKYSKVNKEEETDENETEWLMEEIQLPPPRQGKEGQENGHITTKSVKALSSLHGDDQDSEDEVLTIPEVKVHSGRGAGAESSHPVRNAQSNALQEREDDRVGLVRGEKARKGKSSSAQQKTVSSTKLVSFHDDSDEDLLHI

[125I]-labeled IGF-II (ligand)
BMAX (fmol/mg protein) [1]: 16.8
BMAX (fmol/mg protein) [2]: 8.14
BMAX (fmol/mg protein) [3]: 12.5
BMAX (fmol/mg protein) [4]: 4.71
